Measured values published in publication PMC12416549 (2024).
Residue numbers refer to the chain shown, from its start. Names may count otherwise.

T1: TNFR1 (Homo sapiens, UniProt P19438)
T1 chain: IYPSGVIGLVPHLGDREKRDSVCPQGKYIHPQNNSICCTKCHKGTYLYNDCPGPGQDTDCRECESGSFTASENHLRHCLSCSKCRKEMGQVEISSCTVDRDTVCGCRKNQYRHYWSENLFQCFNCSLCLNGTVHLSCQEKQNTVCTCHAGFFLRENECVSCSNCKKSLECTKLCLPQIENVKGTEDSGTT

B1: E67M (designed binder)
chain: MTLQELLREEALRRAEAEAFRYALELLAEKFPEQKEYLLDLAEEIESQIRSLSGVDVEDVRKFLDKMWAWVKELLAEHPAELAEVEAARAARLAELRAEVEAKVAA
B2: V100Q (designed binder)
chain: B1 chain with M67E, V100Q
B3: A106M (designed binder)
chain: B1 chain with M67E, A106M
B4: E16I (designed binder)
chain: B1 chain with E16I, M67E
B5: S51C (designed binder)
chain: B1 chain with S51C, M67E
B6: R92F (designed binder)
chain: B1 chain with M67E, R92F
B7: V85R (designed binder)
chain: B1 chain with M67E, V85R
B8: D65I (designed binder)
chain: B1 chain with D65I, M67E
B9: L24D (designed binder)
chain: B1 chain with L24D, M67E
B10: L52R (designed binder)
chain: B1 chain with L52R, M67E
B11: A90L (designed binder)
chain: B1 chain with M67E, A90L
B12: V71R (designed binder)
chain: B1 chain with M67E, V71R
B13: L75R (designed binder)
chain: B1 chain with M67E, L75R
B14: L38N (designed binder)
chain: B1 chain with L38N, M67E
B15: R61V (designed binder)
chain: B1 chain with R61V, M67E
B16: E95K (designed binder)
chain: B1 chain with M67E, E95K
B17: A102T (designed binder)
chain: B1 chain with M67E, A102T
B18: K62E (designed binder)
chain: B1 chain with K62E, M67E
B19: L39D (designed binder)
chain: B1 chain with L39D, M67E
B20: I45H (designed binder)
chain: B1 chain with I45H, M67E
B21: W68D (designed binder)
chain: B1 chain with M67E, W68D
B22: E43K (designed binder)
chain: B1 chain with E43K, M67E
B23: E101D (designed binder)
chain: B1 chain with M67E, E101D
B24: E99C (designed binder)
chain: B1 chain with M67E, E99C
B25: E36D (designed binder)
chain: B1 chain with E36D, M67E
B26: E84R (designed binder)
chain: B1 chain with M67E, E84R
B27: A76K (designed binder)
chain: B1 chain with M67E, A76K
B28: D56W (designed binder)
chain: B1 chain with D56W, M67E
B29: K62Y (designed binder)
chain: B1 chain with K62Y, M67E
B30: A11F (designed binder)
chain: B1 chain with A11F, M67E
B31: S47I (designed binder)
chain: B1 chain with S47I, M67E
B32: L24Q (designed binder)
chain: B1 chain with L24Q, M67E
B33: L93H (designed binder)
chain: B1 chain with M67E, L93H
B34: V60N (designed binder)
chain: B1 chain with V60N, M67E
B35: F20C (designed binder)
chain: B1 chain with F20C, M67E
B36: E10I (designed binder)
chain: B1 chain with E10I, M67E
B37: D56C (designed binder)
chain: B1 chain with D56C, M67E
B38: R89K (designed binder)
chain: B1 chain with M67E, R89K
B39: A19M (designed binder)
chain: B1 chain with A19M, M67E
B40: L6Y (designed binder)
chain: B1 chain with L6Y, M67E
B41: P79Y (designed binder)
chain: B1 chain with M67E, P79Y
B42: K62Q (designed binder)
chain: B1 chain with K62Q, M67E
B43: L3P (designed binder)
chain: B1 chain with L3P, M67E
B44: E99K (designed binder)
chain: B1 chain with M67E, E99K
B45: L93T (designed binder)
chain: B1 chain with M67E, L93T
B46: A17R (designed binder)
chain: B1 chain with A17R, M67E
B47: R61Y (designed binder)
chain: B1 chain with R61Y, M67E
B48: R61G (designed binder)
chain: B1 chain with R61G, M67E
B49: Q48Y (designed binder)
chain: B1 chain with Q48Y, M67E
B50: E25N (designed binder)
chain: B1 chain with E25N, M67E
B51: R14S (designed binder)
chain: B1 chain with R14S, M67E
B52: E81Q (designed binder)
chain: B1 chain with M67E, E81Q
B53: Y37R (designed binder)
chain: B1 chain with Y37R, M67E
B54: A23M (designed binder)
chain: B1 chain with A23M, M67E
B55: V71Q (designed binder)
chain: B1 chain with M67E, V71Q
B56: K62V (designed binder)
chain: B1 chain with K62V, M67E
B57: D40P (designed binder)
chain: B1 chain with D40P, M67E
B58: L38W (designed binder)
chain: B1 chain with L38W, M67E
B59: R97A (designed binder)
chain: B1 chain with M67E, R97A

Target: T1, TNFR1
Assay: yeast display SC50

| Binder | apparent Kd (screen) |
| --- | --- |
| B1 | 1.27 nM |
| B2 | 0.718 nM |
| B3 | 0.718 nM |
| B4 | 0.539 nM |
| B5 | 1.05 nM |
| B6 | 0.49 nM |
| B7 | 13.8 nM |
| B8 | 0.405 nM |
| B9 | 1.86 nM |
| B10 | 11.4 nM |
| B11 | 0.653 nM |
| B12 | 24.4 nM |
| B13 | 0.653 nM |
| B14 | 1.86 nM |
| B15 | 0.593 nM |
| B16 | 0.539 nM |
| B17 | 0.79 nM |
| B18 | 0.79 nM |
| B19 | 8.56 nM |
| B20 | 0.956 nM |

| Binder | apparent Kd (screen) |
| --- | --- |
| B21 | 12.5 nM |
| B22 | 0.79 nM |
| B23 | 0.49 nM |
| B24 | 0.653 nM |
| B25 | 0.49 nM |
| B26 | 0.79 nM |
| B27 | 0.718 nM |
| B28 | 1.69 nM |
| B29 | 0.446 nM |
| B30 | 0.718 nM |
| B31 | 0.956 nM |
| B32 | 0.79 nM |
| B33 | 0.446 nM |
| B34 | 0.956 nM |
| B35 | 1.69 nM |
| B36 | 1.16 nM |
| B37 | 0.956 nM |
| B38 | 0.539 nM |
| B39 | 0.539 nM |
| B40 | 5.31 nM |

| Binder | apparent Kd (screen) |
| --- | --- |
| B41 | 0.869 nM |
| B42 | 0.539 nM |
| B43 | 2.73 nM |
| B44 | 0.539 nM |
| B45 | 0.653 nM |
| B46 | 0.539 nM |
| B47 | 10.4 nM |
| B48 | 2.25 nM |
| B49 | 11.4 nM |
| B50 | 0.869 nM |
| B51 | 0.49 nM |
| B52 | 0.49 nM |
| B53 | 4.83 nM |
| B54 | 0.539 nM |
| B55 | 0.869 nM |
| B56 | 0.49 nM |
| B57 | 9.41 nM |
| B58 | 0.49 nM |
| B59 | 0.718 nM |
